Test results from the RNAGym collection of RNA variant scans (doi:10.1093/molbev/msab373).

B1: Azoarcus group I ribozyme (parent)
chain: GUGCCUUGCGCCGGGAAACCACGCAAGGGAUGGUGUCAAAUUCGGCGAAACCUAAGCGCCCGCCCGGGCGUAUGGCAACGCCGAGCCAAGCUUCGGCGCCUGCGCCGAUGAAGGUGUAGAGACUAGACGGCACCCACCUAAGGCAAACGCUAUGGUGAAGGCAUAGUCCAGGGAGUGGCGAAAGUCACACAAACCGG

Variants of: B1
Assay: reverse-splicing fitness (ratio to wild type); higher = more active; in vitro selection; Mg2+ level not given
How it was run: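 An in vitro group I ribozyme library with randomized positions was T7-transcribed and gel-purified. In triplicate, 10 pmol RNA in EPPS pH 7.5 was reacted with 50 pmoles of a 30-nt RNA substrate for 1 h at 37 °C across several added MgCl2 levels (1–48 mM), then stopped with EDTA. Products were reverse transcribed from a substrate-complementary primer, PCR-amplified and sequenced (HiSeq 4000). Fitness is a variant's read proportion after selection over that before, normalised to wild type.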

Row | Variant | reverse-splicing fitness
1 | GUGCCUUGCGCCGGGAAACCACGCAAGGGAUGGUGUCAAAUUCGGCGAAACCUAAGCGCCCGCCCGGGCGUAUGGCAACGCGGAGCCAAGCUUCGGCGCCUGCGCCGAUGGAGGUGUAGAGACUAGACGGCACCCACCUAAGGCUAACGUUAUGGUGAAGGCAUAGUCCAGGGAGUGGCGAAAGUCACACAAACCGG | 0.261
2 | GUGCCUUGCGCCGGGAAACCACGCAAGGGAUGGUGUCAAAUUCGGCGAAACCUAAGCGCCCGCCCGGGCGUAUGGCAACGCGGAGCCAAGCUUCGGCGCCUGCGCCGAUGGAGGUGUAGAGACUAGACGGCACCCACCUAAGGCUAACGUUAUGGUGAAGGCAUAGUCGAGGGAGAGGCGAAAGUCACACAAACCGG | 0.0142
3 | GUGCCUUGCGCCGGGAAACCACGCAAGGGAUGGUGUCAAAUUCGGCGAAACCUAAGCGCCCGCCCGGGCGUAUGGCAACGCGGAGCCAAGCUUCGGCGCCUGCGCCGAUGGAGGUGUAGAGACUAGACGGCACCCACCUAAGGCUAACGUUAUGGUGAAGGCAUAGUCGAGGGAGGGGCGAAAGUCACACAAACCGG | 0.00611
4 | GUGCCUUGCGCCGGGAAACCACGCAAGGGAUGGUGUCAAAUUCGGCGAAACCUAAGCGCCCGCCCGGGCGUAUGGCAACGCGGAGCCAAGCUUCGGCGCCUGCGCCGAUGGAGGUGUAGAGACUAGACGGCACCCACCUAAGGCUAACGUUAUGGUGAAGGCAUAGUCGAGGGAGCGGCGAAAGUCACACAAACCGG | 0.0152
5 | GUGCCUUGCGCCGGGAAACCACGCAAGGGAUGGUGUCAAAUUCGGCGAAACCUAAGCGCCCGCCCGGGCGUAUGGCAACGCGGAGCCAAGCUUCGGCGCCUGCGCCGAUGGAGGUGUAGAGACUAGACGGCACCCACCUAAGGCUAACGGUAUGGUGAAGGCAUAGUCCAGGGAGGGGCGAAAGUCACACAAACCGG | 0.00715
6 | GUGCCUUGCGCCGGGAAACCACGCAAGGGAUGGUGUCAAAUUCGGCGAAACCUAAGCGCCCGCCCGGGCGUAUGGCAACGCGGAGCCAAGCUUCGGCGCCUGCGCCGAUGGAGGUGUAGAGACUAGACGGCACCCACCUAAGGCUAACGGUAUGGUGAAGGCAUAGUCCAGGGAGCGGCGAAAGUCACACAAACCGG | 0.0287
7 | GUGCCUUGCGCCGGGAAACCACGCAAGGGAUGGUGUCAAAUUCGGCGAAACCUAAGCGCCCGCCCGGGCGUAUGGCAACGCGGAGCCAAGCUUCGGCGCCUGCGCCGAUGGAGGUGUAGAGACUAGACGGCACCCACCUAAGGCUAACGGUAUGGUGAAGGCAUAGUCCAGGGAGAGGCGAAAGUCACACAAACCGG | 0.0185
8 | GUGCCUUGCGCCGGGAAACCACGCAAGGGAUGGUGUCAAAUUCGGCGAAACCUAAGCGCCCGCCCGGGCGUAUGGCAACGCGGAGCCAAGCUUCGGCGCCUGCGCCGAUGGAGGUGUAGAGACUAGACGGCACCCACCUAAGGCUAACGGUAUGGUGAAGGCAUAGUCUAGGGAGCGGCGAAAGUCACACAAACCGG | 0.016
9 | GUGCCUUGCGCCGGGAAACCACGCAAGGGAUGGUGUCAAAUUCGGCGAAACCUAAGCGCCCGCCCGGGCGUAUGGCAACGCGGAGCCAAGCUUCGGCGCCUGCGCCGAUGGAGGUGUAGAGACUAGACGGCACCCACCUAAGGCUAACGGUAUGGUGAAGGCAUAGUCUAGGGAGAGGCGAAAGUCACACAAACCGG | 0.00966
10 | GUGCCUUGCGCCGGGAAACCACGCAAGGGAUGGUGUCAAAUUCGGCGAAACCUAAGCGCCCGCCCGGGCGUAUGGCAACGCGGAGCCAAGCUUCGGCGCCUGCGCCGAUGGAGGUGUAGAGACUAGACGGCACCCACCUAAGGCUAACGGUAUGGUGAAGGCAUAGUCUAGGGAGGGGCGAAAGUCACACAAACCGG | 0.00577
11 | GUGCCUUGCGCCGGGAAACCACGCAAGGGAUGGUGUCAAAUUCGGCGAAACCUAAGCGCCCGCCCGGGCGUAUGGCAACGCGGAGCCAAGCUUCGGCGCCUGCGCCGAUGGAGGUGUAGAGACUAGACGGCACCCACCUAAGGCUAACGCUAUGGUGAAGGCAUAGUCAAGGGAGUGGCGAAAGUCACACAAACCGG | 0.00634
12 | GUGCCUUGCGCCGGGAAACCACGCAAGGGAUGGUGUCAAAUUCGGCGAAACCUAAGCGCCCGCCCGGGCGUAUGGCAACGCGGAGCCAAGCUUCGGCGCCUGCGCCGAUGGAGGUGUAGAGACUAGACGGCACCCACCUAAGGCUAACGCUAUGGUGAAGGCAUAGUCAAGGGAGCGGCGAAAGUCACACAAACCGG | 0.0135
13 | GUGCCUUGCGCCGGGAAACCACGCAAGGGAUGGUGUCAAAUUCGGCGAAACCUAAGCGCCCGCCCGGGCGUAUGGCAACGCGGAGCCAAGCUUCGGCGCCUGCGCCGAUGGAGGUGUAGAGACUAGACGGCACCCACCUAAGGCUAACGCUAUGGUGAAGGCAUAGUCAAGGGAGAGGCGAAAGUCACACAAACCGG | 0.0133
14 | GUGCCUUGCGCCGGGAAACCACGCAAGGGAUGGUGUCAAAUUCGGCGAAACCUAAGCGCCCGCCCGGGCGUAUGGCAACGCGGAGCCAAGCUUCGGCGCCUGCGCCGAUGGAGGUGUAGAGACUAGACGGCACCCACCUAAGGCUAACGUUAUGGUGAAGGCAUAGUCUAGGGAGGGGCGAAAGUCACACAAACCGG | 0.00549
15 | GUGCCUUGCGCCGGGAAACCACGCAAGGGAUGGUGUCAAAUUCGGCGAAACCUAAGCGCCCGCCCGGGCGUAUGGCAACGCGGAGCCAAGCUUCGGCGCCUGCGCCGAUGGAGGUGUAGAGACUAGACGGCACCCACCUAAGGCUAACGUUAUGGUGAAGGCAUAGUCUAGGGAGCGGCGAAAGUCACACAAACCGG | 0.0137
